Laboratory results taken from patent US20140271457A1 (AbbVie / Abbott, published 2014).
Blank lines part the entries; values can stand above or below the binder they belong to.

Biological target: Recombinant Human TNF-α/TNFSF1A (human, UniProt P01375 77-233)
Assay: cell-based or functional assay

Sequence of Recombinant Human TNF-α/TNFSF1A (P01375 77-233 limits assumed): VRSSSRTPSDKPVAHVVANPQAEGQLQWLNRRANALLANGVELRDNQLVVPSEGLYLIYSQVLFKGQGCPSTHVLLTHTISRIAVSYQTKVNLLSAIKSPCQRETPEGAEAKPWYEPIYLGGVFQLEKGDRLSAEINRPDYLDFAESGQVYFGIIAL

N-Terminal VD huTNFα Neutralization Assay IC50: 0.071 nM
B1: DVD3203 (bispecific antibody, IgG1)
VH: EVQLVESGGGLVQPGGSLRLSCAASGFTFSNYGVTWVRQAPGKGLEWVSMIWADGSTHYASSVKGRFTISRDNSKNTLYLQMNSLRAEDTAVYYCAREWQHGPVAYWGQGTLVTVSSGGGGSGGGGSEVQLVESGGGLVQPGGSLRLSCAASGFSFSKYWLGWVRQAPGKGLEWVSDIYPGYDYTHYNEKFKDRFTISADTSKNTAYLQMNSLRAEDTAVYYCARSDGSSTYWGQGTLVTVSS
VL: DIQMTQSPSSLSASVGDRVTITCRASQLVSSAVAWYQQKPGKAPKLLIYWASARHTGVPSRFSGSGSGTDFTLTISSLQPEDFATYYCQQHYKTPFTFGQGTKLEIKRGGSGGGGSGDIQMTQSPSSLSASVGDRVTITCTSSQNIVHSNGNTYLEWYQQKPGKAPKLLIYKVSNRFSGVPSRFSGSGSGTDFTLTISSLQPEDFATYYCFQVSHVPYTFGQGTKVEIKR

C-Terminal VD huTNFα Neutralization Assay IC50: 0.203 nM
B2: DVD3023 (bispecific antibody, IgG1)
VH: EVQLVQSGAEVKKPGASVKVSCKASGYTFTKYWLGWVRQAPGQGLEWMGDIYPGYDYTHYNEKFKDRVTLTTDTSTSTAYMELRSLRSDDTAVYYCARSDGSSTYWGQGTLVTVSSGGGGSGGGGSEVQLVQSGAEVKKPGASVKVSCKASGYTFNNYGIIWVRQAPGQGLEWMGWINTYTGKPTYAQKFQGRVTMTTDTSTSTAYMELSSLRSEDTAVYYCARKLFNTVAVTDNAMDYWGQGTTVTVSS
VL: DVLMTQTPLSLPVTPGEPASISCTSSQNIVHSNGNTYLEWYLQKPGQSPQLLIYKVSNRFSGVPDRFSGSGSGTDFTLKISRVEAEDVGVYYCFQVSHVPYTFGGGTKVEIKRGGSGGGGSGDIQMTQSPSSLSASVGDRVTITCRASQDIENYLNWYQQKPGKAPKLLIYYTSRLQSGVPSRFSGSGSGTDFTLTISSLQPEDFATYFCQQGNTQPPTFGQGTKLEIKR

N-Terminal VD huTNFα Neutralization Assay IC50: 0.009 nM
B3: DVD3019 (bispecific antibody, IgG1)
VH: EVQLVQSGAEVKKPGASVKVSCKASGYTFNNYGIIWVRQAPGQGLEWMGWINTYTGKPTYAQKFQGRVTMTTDTSTSTAYMELSSLRSEDTAVYYCARKLFNTVAVTDNAMDYWGQGTTVTVSSASTKGPEVQLVQSGAEVKKPGASVKVSCKASGYTFTKYWLGWVRQAPGQGLEWMGDIYPGYDYTHYNEKFKDRVTLTTDTSTSTAYMELRSLRSDDTAVYYCARSDGSSTYWGQGTLVTVSS
VL: DIQMTQSPSSLSASVGDRVTITCRASQDIENYLNWYQQKPGKAPKLLIYYTSRLQSGVPSRFSGSGSGTDFTLTISSLQPEDFATYFCQQGNTQPPTFGQGTKLEIKRTVAAPDVLMTQTPLSLPVTPGEPASISCTSSQNIVHSNGNTYLEWYLQKPGQSPQLLIYKVSNRFSGVPDRFSGSGSGTDFTLKISRVEAEDVGVYYCFQVSHVPYTFGGGTKVEIKR

N-Terminal VD huTNFα Neutralization Assay IC50: 0.007 nM
B4: DVD3021 (bispecific antibody, IgG1)
VH: B3 VH
VL: DIQMTQSPSSLSASVGDRVTITCRASQDIENYLNWYQQKPGKAPKLLIYYTSRLQSGVPSRFSGSGSGTDFTLTISSLQPEDFATYFCQQGNTQPPTFGQGTKLEIKRTVAAPSVFIFPPDVLMTQTPLSLPVTPGEPASISCTSSQNIVHSNGNTYLEWYLQKPGQSPQLLIYKVSNRFSGVPDRFSGSGSGTDFTLKISRVEAEDVGVYYCFQVSHVPYTFGGGTKVEIKR

N-Terminal VD huTNFα Neutralization Assay IC50: 0.016 nM
B5: DVD3022 (bispecific antibody, IgG1)
VH: EVQLVQSGAEVKKPGASVKVSCKASGYTFNNYGIIWVRQAPGQGLEWMGWINTYTGKPTYAQKFQGRVTMTTDTSTSTAYMELSSLRSEDTAVYYCARKLFNTVAVTDNAMDYWGQGTTVTVSSASTKGPSVFPLAPEVQLVQSGAEVKKPGASVKVSCKASGYTFTKYWLGWVRQAPGQGLEWMGDIYPGYDYTHYNEKFKDRVTLTTDTSTSTAYMELRSLRSDDTAVYYCARSDGSSTYWGQGTLVTVSS
VL: B3 VL

C-Terminal VD huTNFα Neutralization Assay IC50: 0.934 nM
B6: DVD3024 (bispecific antibody, IgG1)
VH: EVQLVQSGAEVKKPGASVKVSCKASGYTFTKYWLGWVRQAPGQGLEWMGDIYPGYDYTHYNEKFKDRVTLTTDTSTSTAYMELRSLRSDDTAVYYCARSDGSSTYWGQGTLVTVSSASTKGPEVQLVQSGAEVKKPGASVKVSCKASGYTFNNYGIIWVRQAPGQGLEWMGWINTYTGKPTYAQKFQGRVTMTTDTSTSTAYMELSSLRSEDTAVYYCARKLFNTVAVTDNAMDYWGQGTTVTVSS
VL: DVLMTQTPLSLPVTPGEPASISCTSSQNIVHSNGNTYLEWYLQKPGQSPQLLIYKVSNRFSGVPDRFSGSGSGTDFTLKISRVEAEDVGVYYCFQVSHVPYTFGGGTKVEIKRTVAAPDIQMTQSPSSLSASVGDRVTITCRASQDIENYLNWYQQKPGKAPKLLIYYTSRLQSGVPSRFSGSGSGTDFTLTISSLQPEDFATYFCQQGNTQPPTFGQGTKLEIKR

C-Terminal VD huTNFα Neutralization Assay IC50: 0.076 nM
B7: DVD3027 (bispecific antibody, IgG1)
VH: EVQLVQSGAEVKKPGASVKVSCKASGYTFTKYWLGWVRQAPGQGLEWMGDIYPGYDYTHYNEKFKDRVTLTTDTSTSTAYMELRSLRSDDTAVYYCARSDGSSTYWGQGTLVTVSSASTKGPSVFPLAPEVQLVQSGAEVKKPGASVKVSCKASGYTFNNYGIIWVRQAPGQGLEWMGWINTYTGKPTYAQKFQGRVTMTTDTSTSTAYMELSSLRSEDTAVYYCARKLFNTVAVTDNAMDYWGQGTTVTVSS
VL: B6 VL

C-Terminal VD huTNFα Neutralization Assay IC50: 0.038 nM
B8: DVD3026 (bispecific antibody, IgG1)
VH: B6 VH
VL: DVLMTQTPLSLPVTPGEPASISCTSSQNIVHSNGNTYLEWYLQKPGQSPQLLIYKVSNRFSGVPDRFSGSGSGTDFTLKISRVEAEDVGVYYCFQVSHVPYTFGGGTKVEIKRTVAAPSVFIFPPDIQMTQSPSSLSASVGDRVTITCRASQDIENYLNWYQQKPGKAPKLLIYYTSRLQSGVPSRFSGSGSGTDFTLTISSLQPEDFATYFCQQGNTQPPTFGQGTKLEIKR

N-Terminal VD huTNFα Neutralization Assay IC50: 0.001 nM
B9: DVD3204 (bispecific antibody, IgG1)
VH: EVQLVESGGGLVQPGGSLRLSCAASGFTFSNYGVTWVRQAPGKGLEWVSMIWADGSTHYASSVKGRFTISRDNSKNTLYLQMNSLRAEDTAVYYCAREWQHGPVAYWGQGTLVTVSSASTKGPEVQLVESGGGLVQPGGSLRLSCAASGFSFSKYWLGWVRQAPGKGLEWVSDIYPGYDYTHYNEKFKDRFTISADTSKNTAYLQMNSLRAEDTAVYYCARSDGSSTYWGQGTLVTVSS
VL: DIQMTQSPSSLSASVGDRVTITCRASQLVSSAVAWYQQKPGKAPKLLIYWASARHTGVPSRFSGSGSGTDFTLTISSLQPEDFATYYCQQHYKTPFTFGQGTKLEIKRTVAAPDIQMTQSPSSLSASVGDRVTITCTSSQNIVHSNGNTYLEWYQQKPGKAPKLLIYKVSNRFSGVPSRFSGSGSGTDFTLTISSLQPEDFATYYCFQVSHVPYTFGQGTKVEIKR
